Residue numbers refer to the chain shown, from its start. Names and notes keep the numbering of the source. Values joined by “and” are separate entries in the source; they are usually repeats but may differ in a detail not shown here. Identical values can stand only once. Like-named read-outs stand apart in the source and are kept apart here.
T1: VEGF121 (human, UniProt P15692 27-147)
T1 construct: mature; Immobilized on the biosensor chip via primary amino groups; also called Purified VEGF121
T1 sequence (looked up): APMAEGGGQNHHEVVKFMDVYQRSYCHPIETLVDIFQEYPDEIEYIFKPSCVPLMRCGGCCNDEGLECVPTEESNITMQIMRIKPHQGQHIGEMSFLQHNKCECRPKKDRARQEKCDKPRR

B1: chimeric F(ab) (Fab, V domains shown)
VH: EIQLVQSGPELKQPGETVRISCKASGYTFTNYGMNWVKQAPGKGLKWMGWINTYTGEPTYAADFKRRFTFSLETSASTAYLQISNLKNDDTATYFCAKYPHYYGSSHWYFDVWGAGTTVTVSS
VL: DIQMTQTTSSLSASLGDRVIISCSASQDISNYLNWYQQKPDGTVKVLIYFTSSLHSGVPSRFSGSGSGTDYSLTISNLEPEDIATYYCQQYSTVPWTFGGGTKLEIKR
notes: also called chim-F(ab); A4.6.1 chimera
B2: muMAb VEGF A.4.6.1 (antibody, V domains shown)
VH: B1 VH
VL: B1 VL
notes: Original murine IgG1 antibody purified from ascites; also called murIgG1; murine mAb A4.6.1
B3: chIgG1 (antibody, V domains shown)
VH: B1 VH
VL: B1 VL
notes: Murine A4.6.1 VL and VH fused to human kappa CL and human IgG1 heavy chain constant domains; also called chimeric IgG1
B4: Y0238-1 (Fab, V domains shown)
VH: EVQLVESGGGLVQPGGSLRLSCAASGYTFTNYGINWVRQAPGKGLEWVGWINTYTGEPTYAADFKRRFTFSLDTSKSTAYLQMNSLRAEDTAVYYCAKYPYYRGTSHWYFDVWGQGTL
VL: DIQLTQSPSSLSASVGDRVTITCRANEQLSNYLNWYQQKPGKAPKVLIYFTSSLHSGVPSRFSGSGSGTDFTLTISSLQPEDFATYYCQQYSTVPWTFGQGTKVEIKR
notes: From library YC-81 on the pY0192 template; Soluble Fab
B5: Y0243-1 (Fab, V domains shown)
VH: B4 VH with T28D, N31H, I34M, Y101H, R103Y, T105S
VL: B4 VL
notes: Soluble Fab
B6: Y0238-10 (Fab, V domains shown)
VH: B4 VH with G104N
VL: B4 VL
notes: as for B4
B7: Y0244-1 (Fab, V domains shown)
VH: B4 VH with L72V, T74V, Y101H, R103Y, T105S
VL: B4 VL
notes: Soluble Fab
B8: Y0238-7 (Fab, V domains shown)
VH: B4 VH with R103W
VL: B4 VL
notes: as for B4
B9: Y0313-3 (Fab, V domains shown)
VH: B4 VH with R103Y, T105S
VL: B4 VL
notes: Soluble Fab
B10: Y0238-5 (Fab, V domains shown)
VH: B4 VH with R103I, G104A, T105K
VL: B4 VL
notes: as for B4
B11: Y0238-3 (Fab, V domains shown)
VH: B4 VH with R103Y
VL: B4 VL
notes: Soluble Fab
B12: Y0244-4 (Fab, V domains shown)
VH: B4 VH with L72I, T74K, Y101H, R103Y, T105S
VL: B4 VL
notes: Soluble Fab
B13: Y0313-1 (Fab, V domains shown)
VH: B4 VH with T28D, N31H, I34M, R103Y
VL: B4 VL
notes: Soluble Fab; Y0243-1 with VH3 H101Y and S105T
B14: F(ab)-1 (Fab, V domains shown)
VH: EVQLVESGGGLVQPGGSLRLSCAASGYTFTNYGMNWVRQAPGKGLEWVGWINTYTGEPTYAADFKRRFTISRDNSKNTLYLQMNSLRAEDTAVYYCARYPHYYGSSHWYFDVWGQGTLVTVSS
VL: DIQMTQSPSSLSASVGDRVTITCSASQDISNYLNWYQQKPGKAPKLLIYFTSSLHSGVPSRFSGSGSGTDFTLTISSLQPEDFATYYCQQYSTVPWTFGQGTKVEIK
B15: F(ab)-8 (Fab, V domains shown)
VH: B14 VH with I70F, R72L, N74T, L79A
VL: B14 VL with L46V
notes: F(ab)-5 with IleH69Phe and LeuH78Ala; Kabat numbers; Fab with human CH1 and CL
B16: F(ab)-9 (Fab, V domains shown)
VH: B14 VH with G49A, I70F, R72L, N74T, L79A
VL: B14 VL with L46V
notes: F(ab)-8 with GlyH49Ala; Kabat numbers; Fab with human CH1 and CL

Assays:
VEGF121 = target: T1, VEGF121; assay: BIAcore SPR, Fab over immobilized VEGF121
Description: VEGF₁₂₁ was covalently immobilized on the biosensorchip via primary amino groups. Binding of humanized A4.6.1 Fab variants was measured by flowing solutions of Fab in PBS/0.05% TWEEN 20™ over the chip at a flow rate of 20 μL/min. Following each binding measurement, residual Fab was stripped from the immobilized ligand by washing with 5 μL of 50 mM aqueous HCl at 3 μL/min. Binding profiles were analyzed by nonlinear regression using a simple monovalent binding model (BIAevaluation software v2.0; Pharmacia).

VEGF [1] = target: T2, VEGF (human, UniProt P15692-4 27-191, limits assumed); assay: BIAcore SPR, F(ab) over immobilized VEGF, koff/kon
T2 construct: Biotinylated in the KDR-IgG ELISA, amine-coupled to the chip in BIAcore; also called biotinylated VEGF; vascular endothelial growth factor
Source text: (§1) BIAcore™ Biosensor Assay: VEGF binding of the humanized and chimeric F(ab)s were compared using a BIAcore™ biosensor (Karlsson et al. Methods: A Comparison to Methods in Enzymology 6:97-108 (1994)). […] VEGF was coupled to a CM-5 biosensor chip through primary amine groups according to manufacturer's instructions (Pharmacia). […] Data points from 0-4500 sec were used for off-rate kinetic analysis. The dissociation rate constant (koff) was obtained from the slope of the plot of ln(R0/R) versus time, where R0 is the signal at t=0 and R is the signal at each time point.
(§2) The slope, Kₛ, was obtained from the plot of ln(−dR/dt) versus time for each F(ab) concentration using the BIAcore™ kinetics evaluation software as described in the Pharmacia Biosensor manual. R is the signal at time t. […] The association rate constant (kₒₙ) was obtained from the slope of the plot of Kₛ versus F(ab) concentration. At the end of each cycle, bound F(ab) was removed by injecting 5 μl of 50 mM HCl at a flow rate of 20 μl/min to regenerate the chip.

VEGF [2] = target: T2, VEGF; assay: competition ELISA (biotinylated VEGF to KDR-IgG)
Description: (§3) Standards (6.9-440 ng/ml chimeric F(ab)) and two-fold serial of samples were incubated with 2 nM biotinylated VEGF for 1 h in tubes. The solutions from the tubes were then transferred to the ELISA plates and incubated for 1 h. […] Titration curves were fit with a four-parameter nonlinear regression curve-fitting program (KaleidaGraph, Synergy Software, Reading Pa.). […] Assays for full-length IgG were the same as for the F(ab)s except that the assay buffer contained 10% human serum.

VEGF [3] = target: T2, VEGF; assay: BIAcore SPR, F(ab) over immobilized VEGF
Source text: as §1, §2

VEGF [4] = target: T2, VEGF; assay: competition ELISA (biotinylated VEGF to KDR-IgG), 10% human serum
Description: as §3

VEGF [5] = target: T2, VEGF; assay: BIAcore-2000 SPR, Fab over immobilized VEGF, 25 C
Description: (§4) BIAcore Analysis: The VEGF-binding affinities of Fab fragments were calculated from association and dissociation rate constants measured using a BIAcore-2000™ surface plasmon resonance system (BIAcore, Inc., Piscataway, N.J.). A biosensor chip was activated for covalent coupling of VEGF using N-ethyl-N′-(3-dimethylaminopropyl)-carbodiimide hydrochloride (EDC) and N-hydroxysuccinimide (NHS) according to the supplier's (BIAcore, Inc., Piscataway, N.J.) instructions. VEGF was buffered exchanged into 20 mM sodium acetate, pH 4.8 and diluted to approximately 50 μg/mL. An aliquot (35 μL) was injected at a flow rate of 2 μL/min to achieve approximately 700-1400 response units (RU) of coupled protein. Finally, 1 M ethanolamine was injected as a blocking agent.
(§5) For kinetics measurements, two-fold serial dilutions of Fab were injected in PBS/TWEEN™ buffer (0.05% TWEEN 20™ in phosphate buffered saline) at 25° C. at a flow rate of 10 μL/min. […] Equilibrium dissociation constants, Kd's from surface plasmon resonance (SPR) measurements were calculated as koff/kon.

VEGF [6] = target: T2, VEGF; assay: BIAcore-2000 SPR, relative to Y0192
Description: as §4, §5

VEGF [7] = target: T2, VEGF; assay: BIAcore-2000 SPR, Fab over immobilized VEGF, 25 C; off-rate near detection limit
Description: as §4, §5

rhVEGF165 [8] = target: T3, rhVEGF165 (human, UniProt P15692 27-191); assay: cell-based or functional assay
rhVEGF165 [9] = target: T3, rhVEGF165; assay: cell-based or functional assay; remark: listed apart in the source
VEGF [10] = target: T2, VEGF; assay: competition ELISA (biotinylated VEGF to KDR-IgG); remark: listed apart in the source

Binder	Kd (VEGF [5]) [nM]	koff (VEGF [5]) [s⁻¹]	kon (VEGF [5]) [M⁻¹ s⁻¹]	Kd (wt)/Kd (mut) (VEGF [6]) [ratio]	further results
B1					Kd (VEGF121): 1.6 nM; koff (VEGF121): 8.5e-05 s⁻¹; kon (VEGF121): 54000 M⁻¹ s⁻¹; Kd (VEGF [1]): 0.91 nM; EC50 (VEGF [2]): 0.049 µg/mL and 1 nM; EC50 F(ab)-X / EC50 chimeric F(ab) (VEGF [2]): 1 ratio; koff (VEGF [3]): 5.9e-05 s⁻¹; kon (VEGF [3]): 65000 M⁻¹ s⁻¹
B2					IgG1/chIgG1 (EC50 ratio) (VEGF [4]): 0.759 ratio
B3					EC50 (VEGF [4]): 0.113 µg/mL and 0.75 nM; IgG1/chIgG1 (EC50 ratio) (VEGF [4]): 1 ratio
B4	0.4	9e-06	26000	7.3	
B5	0.7	4.5e-05	67000	4.1	
B6	0.6	9e-06	16000	4.8	
B7	8	0.00027	34000	3.6	
B8	≤ 0.4		15000	≥ 7.3	koff (VEGF [7]): ≤ 6e-06 s⁻¹
B9	0.65	8.1e-06	12000	4.5	
B10	0.9	8e-06	8000	3.2	
B11	≤ 0.2		17000	≥ 14	koff (VEGF [7]): ≤ 4e-06 s⁻¹
B12	3.3	0.00017	52000	0.9	
B13	≤ 0.15		35000	≥ 20	fold potency over the wild-type Fab (Y0192), inhibition of VEGF-induced HuVEC growth (rhVEGF165 [8]): > 30 fold; IC50 (read off the curve) (rhVEGF165 [9]): ~0.5 nM; koff (VEGF [7]): ≤ 5.4e-06 s⁻¹
B14					EC50 F(ab)-X / EC50 chimeric F(ab) (VEGF [10]): > 1350; fold reduction of binding affinity from the chimeric F(ab) (VEGF [10]): > 1000 fold
B15					EC50 F(ab)-X / EC50 chimeric F(ab) (VEGF [2]): 9.6 ratio; fold improvement in binding vs F(ab)-5 (VEGF [2]): 8 fold
B16					EC50 F(ab)-X / EC50 chimeric F(ab) (VEGF [2]): > 150 ratio; fold reduction in binding vs F(ab)-8 (VEGF [2]): 15 fold

From patent US20050112126A1 (Genentech, published 2005)
